Key:
[1] = target: NGS2405-Fc (anti-FAP VNAR NGS2405 fused to the Fc of human IgG1) (nurse shark (Ginglyomostoma cirratum)); assay: BLI
[2] = target: H4-Fc (anti-FAP VNAR H4 fused to the Fc of human IgG1) (nurse shark (Ginglyomostoma cirratum)); assay: BLI

B1: recombinant mouse FAP (mFAP) (enzyme)
chain: MKTWLKTVFGVTTLAALALVVICIVLRPSRVYKPEGNTKRALTLKDILNGTFSYKTYFPNWISEQEYLHQSEDDNIVFYNIETRESYIILSNSTMKSVNATDYGLSPDRQFVYLESDYSKLWRYSYTATYYIYDLQNGEFVRGYELPRPIQYLCWSPVGSKLAYVYQNNIYLKQRPGDPPFQITYTGRENRIFNGIPDWVYEEEMLATKYALWWSPDGKFLAYVEFNDSDIPIIAYSYYGDGQYPRTINIPYPKAGAKNPVVRVFIVDTTYPHHVGPMEVPVPEMIASSDYYFSWLTWVSSERVCLQWLKRVQNVSVLSICDFREDWHAWECPKNQEHVEESRTGWAGGFFVSTPAFSQDATSYYKIFSDKDGYKHIHYIKDTVENAIQITSGKWEAIYIFRVTQDSLFYSSNEFEGYPGRRNIYRISIGNSPPSKKCVTCHLRKERCQYYTASFSYKAKYYALVCYGPGLPISTLHDGRTDQEIQVLEENKELENSLRNIQLPKVEIKKLKDGGLTFWYKMILPPQFDRSKKYPLLIQVYGGPCSQSVKSVFAVNWITYLASKEGIVIALVDGRGTAFQGDKFLHAVYRKLGVYEVEDQLTAVRKFIEMGFIDEERIAIWGWSYGGYVSSLALASGTGLFKCGIAVAPVSSWEYYASIYSERFMGLPTKDDNLEHYKNSTVMARAEYFRNVDYLLIHGTADDNVHFQNSAQIAKALVNAQVDFQAMWYSDQNHGISSGRSQNHLYTHMTHFLKQCFSLSD
modifications: biotin (EZ-link NHS-PEG4-biotin)
[1]
  Kd: 79.5 nM
[2]
  Kd: 14.2 nM

From article PMC12350670 (2025)
